The target in this data set is CCHFV nucleocapsid protein (N protein) (Crimean-Congo hemorrhagic fever virus (strain 10200?)) (UniProt P89522). As to the kind of experiment: filter binding.
UniProt P89522, sequence (P89522 whole entry): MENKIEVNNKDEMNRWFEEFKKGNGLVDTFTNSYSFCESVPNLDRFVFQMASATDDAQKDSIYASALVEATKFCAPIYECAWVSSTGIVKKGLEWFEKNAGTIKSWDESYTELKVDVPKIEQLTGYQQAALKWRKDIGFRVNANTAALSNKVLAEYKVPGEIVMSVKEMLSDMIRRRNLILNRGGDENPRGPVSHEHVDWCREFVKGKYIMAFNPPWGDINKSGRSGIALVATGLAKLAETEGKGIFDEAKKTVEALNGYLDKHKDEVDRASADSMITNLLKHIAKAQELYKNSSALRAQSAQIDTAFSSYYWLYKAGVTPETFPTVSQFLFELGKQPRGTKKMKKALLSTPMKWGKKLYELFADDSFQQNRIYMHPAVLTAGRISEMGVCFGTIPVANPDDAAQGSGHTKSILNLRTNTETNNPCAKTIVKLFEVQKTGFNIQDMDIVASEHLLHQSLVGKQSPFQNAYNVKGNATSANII

Take “Luc mRNA-1 (WT S-segment 5' UTR + luciferase ORF + truncated S 3' UTR)”: the Kd worked out at 42 nM.

The term Kd denotes a measure of binding affinity in units of concentration.

Source of the values: PMC12172977.
